IntAct's records for PubMed 16431923

Target: ccnd1_human CCND1 (UniProt P24385)
Sequence (P24385 whole entry): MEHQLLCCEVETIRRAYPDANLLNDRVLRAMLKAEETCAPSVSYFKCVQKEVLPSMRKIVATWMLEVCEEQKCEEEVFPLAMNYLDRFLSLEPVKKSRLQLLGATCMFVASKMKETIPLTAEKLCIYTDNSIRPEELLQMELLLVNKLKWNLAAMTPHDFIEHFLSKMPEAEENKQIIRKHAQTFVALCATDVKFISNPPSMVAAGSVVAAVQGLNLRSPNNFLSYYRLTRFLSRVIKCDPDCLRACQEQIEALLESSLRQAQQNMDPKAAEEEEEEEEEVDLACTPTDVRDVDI

Nucleoprotein (Human SARS coronavirus), P59595 S207A;P208A;A209L;R210G
effect of a mutation on the interaction: decreasing interaction strength
